One series has as its system MCF7. Description: percentage of EdU-negative (G0-arrested) nuclei per well, 72 h; higher = more G0 arrest. As to conditions: reference: sequence is the full UniProt precursor, the tested protein was the secreted form or ectodomain.
A further series has as its system hTERT-HMEC. The description is as above. Conditions: reference: sequence is the full UniProt precursor, the tested protein was the secreted form or ectodomain.
Setting [1] is: protein concentration 0.018725 µM.
Setting [2] is: protein concentration 0.18725 µM.
Where [3] appears, read: protein concentration 0.0225 µM.
[4] abbreviates: protein concentration 0.0102857 µM.
[5] abbreviates: protein concentration 0.102857 µM.

± gives the standard deviation of the averaged measurements.
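Also: secreted proteins added to cultured cells, EdU pulse at the end, nuclei found by Hoechst imaging, EdU status from nuclear versus surrounding ring intensity ratio, PBS as neutral control.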

On to “MQRGAALCLRLWLCLGLLDGLVSGYSMTPPTLNITEESHVIDTGDSLSISCRGQHPLEWAWPGAQEAPATGDKDSEDTGVVRDCEGTDARPYCKVLLLHEVHANDTGSYVCYYKYIKARIEGTTAASSYVFVRDFEQPFINKPDTLLVNRKDAMWVPCLVSIPGLNVTLRSQSSVLWPDGQEVVWDDRRGMLVSTPLLHDALYLQCETTWGDQDFLSNPFLVHITGNELYDIQLLPRKSLELLVGEKLVLNCTVWAEFNSGVTFDWDYPGKQAERGKWVPERRSQQTHTELSSILTIHNVSQHDLGSYVCKANNGIQRFRESTEVIVHENPFISVEWLKGPILEATAGDELVKLPVKLAAYPPPEFQWYKDGKALSGRHSPHALVLKEVTEASTGTYTLALWNSAAGLRRNISLELVVNVPPQIHEKEASSPSIYSRHSRQALTCTAYGVPLPLSIQWHWRPWTPCKMFAQRSLRRRQQQDLMPQCRDWRAVTTQDAVNPIESLDTWTEFVEGKNKTVSKLVIQNANVSAMYKCVVSNKVGQDERLIYFYVTTIPDGFTIESKPSEELLEGQPVLLSCQADSYKYEHLRWYRLNLSTLHDAHGNPLLLDCKNVHLFATPLAASLEEVAPGARHATLSLSIPRVAPEHEGHYVCEVQDRRSHDKHCHKKYLSVQALEAPRLTQNLTDLLVNVSDSLEMQCLVAGAHAPSIVWYKDERLLEEKSGVDLADSNQKLSIQRVREEDAGRYLCSVCNAKGCVNSSASVAVEGSEDKGSMEIVILVGTGVIAVFFWVLLLLIFCNMRRPAHADIKTGYLSIIMDPGEVPLEEQCEYLSYDASQWEFPRERLHLGRVLGYGAFGKVVEASAFGIHKGSSCDTVAVKMLKEGATASEHRALMSELKILIHIGNHLNVVNLLGACTKPQGPLMVIVEFCKYGNLSNFLRAKRDAFSPCAEKSPEQRGRFRAMVELARLDRRRPGSSDRVLFARFSKTEGGARRASPDQEAEDLWLSPLTMEDLVCYSFQVARGMEFLASRKCIHRDLAARNILLSESDVVKICDFGLARDIYKDPDYVRKGSARLPLKWMAPESIFDKVYTTQSDVWSFGVLLWEIFSLGASPYPGVQINEEFCQRLRDGTRMRAPELATPAIRRIMLNCWSGDPKARPAFSELVEILGDLLQGRGLQEEEEVCMAPRSSQSSEEGSFSQVSTMALHIAQADAEDSPPSLQRHSLAARYYNWVSFPGCLARGAETRGSSRMKTFEEFPMTPTTYKGSVDNQTDSGMVLASEEFEQIESRHRQESGFSCKGPGQNVAVTRAHPDSQGRRRRPERGARGGQVFYNSEYGELSEPSEEDHCSPSARVTFFTDNSY”, for which the “percentage of EdU-negative” value in the series with MCF7 (setting [1]) worked out at 25.2 ± 1.4%; with MCF7 (setting [2]), 25.66 ± 0.24%; in the series on hTERT-HMEC (setting [1]) it was 5.19 ± 0.73%; with hTERT-HMEC (setting [2]), 6.63 ± 1.2%.

For the sequence “MMGLFPRTTGALAIFVVVILVHGELRIETKGQYDEEEMTMQQAKRRQKREWVKFAKPCREGEDNSKRNPIAKITSDYQATQKITYRISGVGIDQPPFGIFVVDKNTGDINITAIVDREETPSFLITCRALNAQGLDVEKPLILTVKILDINDNPPVFSQQIFMGEIEENSASNSLVMILNATDADEPNHLNSKIAFKIVSQEPAGTPMFLLSRNTGEVRTLTNSLDREQASSYRLVVSGADKDGEGLSTQCECNIKVKDVNDNFPMFRDSQYSARIEENILSSELLRFQVTDLDEEYTDNWLAVYFFTSGNEGNWFEIQTDPRTNEGILKVVKALDYEQLQSVKLSIAVKNKAEFHQSVISRYRVQSTPVTIQVINVREGIAFRPASKTFTVQKGISSKKLVDYILGTYQAIDEDTNKAASNVKYVMGRNDGGYLMIDSKTAEIKFVKNMNRDSTFIVNKTITAEVLAIDEYTGKTSTGTVYVRVPDFNDNCPTAVLEKDAVCSSSPSVVVSARTLNNRYTGPYTFALEDQPVKLPAVWSITTLNATSALLRAQEQIPPGVYHISLVLTDSQNNRCEMPRSLTLEVCQCDNRGICGTSYPTTSPGTRYGRPHSGRLGPAAIGLLLLGLLLLLLAPLLLLTCDCGAGSTGGVTGGFIPVPDGSEGTIHQWGIEGAHPEDKEITNICVPPVTANGADFMESSEVCTNTYARGTAVEGTSGMEMTTKLGAATESGGAAGFATGTVSGAASGFGAATGVGICSSGQSGTMRTRHSTGGTNKDYADGAISMNFLDSYFSQKAFACAEEDDGQEANDCLLIYDNEGADATGSPVGSVGCCSFIADDLDDSFLDSLGPKFKKLAEISLGVDGEGKEVQPPSKDSGYGIESCGHPIEVQQTGFVKCQTLSGSQGASALSTSGSVQPAVSIPDPLQHGNYLVTETYSASGSLVQPSTAGFDPLLTQNVIVTERVICPISSVPGNLAGPTQLRGSHTMLCTEDPCSRLI”, the “percentage of EdU-negative” value in the series with MCF7 (setting [3]) stood at 27.7 ± 0.58%; in the series with MCF7 (protein concentration 0.225 µM), 33.34 ± 0.16%; in the series with hTERT-HMEC (setting [3]) it was 4.88 ± 0.17%; in the series with hTERT-HMEC (protein concentration 0.225 µM), 13.7 ± 2.7%.

Regarding “MADKVRRQRPRRRVCWALVAVLLADLLALSDTLAVMSVDLGSESMKVAIVKPGVPMEIVLNKESRRKTPVIVTLKENERFFGDSAASMAIKNPKATLRYFQHLLGKQADNPHVALYQARFPEHELTFDPQRQTVHFQISSQLQFSPEEVLGMVLNYSRSLAEDFAEQPIKDAVITVPVFFNQAERRAVLQAARMAGLKVLQLINDNTATALSYGVFRRKDINTTAQNIMFYDMGSGSTVCTIVTYQMVKTKEAGMQPQLQIRGVGFDRTLGGLEMELRLRERLAGLFNEQRKGQRAKDVRENPRAMAKLLREANRLKTVLSANADHMAQIEGLMDDVDFKAKVTRVEFEELCADLFERVPGPVQQALQSAEMSLDEIEQVILVGGATRVPRVQEVLLKAVGKEELGKNINADEAAAMGAVYQAAALSKAFKVKPFVVRDAVVYPILVEFTREVEEEPGIHSLKHNKRVLFSRMGPYPQRKVITFNRYSHDFNFHINYGDLGFLGPEDLRVFGSQNLTTVKLKGVGDSFKKYPDYESKGIKAHFNLDESGVLSLDRVESVFETLVEDSAEEESTLTKLGNTISSLFGGGTTPDAKENGTDTVQEEEESPAEGSKDEPGEQVELKEEAEAPVEDGSQPPPPEPKGDATPEGEKATEKENGDKSEAQKPSEKAEAGPEGVAPAPEGEKKQKPARKRRMVEEIGVELVVLDLPDLPEDKLAQSVQKLQDLTLRDLEKQEREKAANSLEAFIFETQDKLYQPEYQEVSTEEQREEISGKLSAASTWLEDEGVGATTVMLKEKLAELRKLCQGLFFRVEERKKWPERLSALDNLLNHSSMFLKGARLIPEMDQIFTEVEMTTLEKVINETWAWKNATLAEQAKLPATEKPVLLSKDIEAKMMALDREVQYLLNKAKFTKPRPRPKDKNGTRAEPPLNASASDQGEKVIPPAGQTEDAEPISEPEKVETGSEPGDTEPLELGGPGAEPEQKEQSTGQKRPLKNDEL [Q9Y4L1]”, the “percentage of EdU-negative” value with MCF7 (setting [4]) turned out to be 23.6 ± 1.2%; in the series with MCF7 (setting [5]), 30.4 ± 1.7%; with hTERT-HMEC (setting [4]) it was 6.45 ± 1.3%; with hTERT-HMEC (setting [5]) it was 35.3 ± 5.6%.

Values taken from the supplement of paper PMC11316812.
